Measurements published in patent US20240327538A1 (AMUNIX PHARMACEUTICALS, published 2024).

Tests used:
human PSMA [1] = target: T1, human PSMA (human, UniProt Q04609 44-750, limits assumed); assay: BLI or SPR
T1 construct: also called huPSMA
Text: (§1) The values are reported below in Table 19 for PSMA and Table 20 for CD3.

Cyno CD3 = target: T2, Cyno CD3 (cynomolgus monkey, UniProt Q95LI5 22-117); assay: BLI or SPR
T2 construct: also called cynomolgus monkey CD3; not shown: A CD3 delta partner cannot be excluded
T2 sequence: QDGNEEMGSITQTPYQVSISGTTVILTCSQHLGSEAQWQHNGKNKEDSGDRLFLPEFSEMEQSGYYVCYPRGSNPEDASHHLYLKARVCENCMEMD

Human CD3 = target: T3, Human CD3 (human, UniProt P07766 23-126); assay: BLI or SPR
T3 construct: not shown: A CD3 delta partner cannot be excluded

human PSMA-Fc [2] = target: T4, human PSMA-Fc (human, UniProt Q04609 44-750, limits assumed); assay: Octet, human PSMA-Fc
T4 construct: also called Human PSMA-Fc fusions; not shown: Fc part
Method: Binding affinity of select PSMA PTE variants was tested by Octet.

human PSMA [3] = target: T1, human PSMA; assay: Pool 2 binding screen
human PSMA-Fc [4] = target: T4, human PSMA-Fc; assay: Octet
cynomolgus monkey PSMA [5] = target: T5, cynomolgus monkey PSMA (cynomolgus monkey, UniProt A0A2K5VNZ0 44-750); assay: Octet
T5 construct: also called cyPSMA; Cyno PSMA

human PSMA [6] = target: T1, human PSMA; assay: Octet
human CD3 epsilon [7] = target: T6, human CD3 epsilon (human, UniProt P07766 23-126, limits assumed); assay: Biacore
T6 construct: also called huCD3e

[8] = target: T7, cynomolgus monkey CD3 epsilon (cynomolgus monkey, UniProt Q95LI5 22-117, limits assumed); assay: Biacore
T7 construct: also called cyCD3e
T7 sequence (looked up): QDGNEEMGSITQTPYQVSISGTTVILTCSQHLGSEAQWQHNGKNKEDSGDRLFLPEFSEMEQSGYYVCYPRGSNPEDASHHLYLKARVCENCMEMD

cynomolgus monkey PSMA [9] = target: T5, cynomolgus monkey PSMA; assay: BLI or SPR
Text: as §1

[10] = target: T8, PSMA on human prostate cancer cell lines (LNCaP, 22Rv1) (human, UniProt Q04609 1-750); assay: cell-based or functional assay
human CD3 epsilon [11] = target: T6, human CD3 epsilon; assay: Octet
[12] = target: T7, cynomolgus monkey CD3 epsilon; assay: Octet
[13] = target: T9, human PSMA on PSMA-transfected CHO cells (human, UniProt Q04609 1-750); assay: binding to PSMA-transfected CHO cells, labeled secondary antibody to the anti-CD3 scFv
T9 construct: whole, on cells; also called Hu PSMA CHO
Method: Surface binding was detected with a labeled secondary antibody specific for the anti-CD3 scFv.
The binding affinities to both human and cyno PSMA and human and cyno CD3 epsilon were determined.

cynomolgus monkey PSMA [14] = target: T5, cynomolgus monkey PSMA; assay: Biacore
human PSMA [15] = target: T1, human PSMA; assay: Biacore
[16] = target: T8, PSMA on human prostate cancer cell …; assay: cell-based or functional assay; remark: listed apart in the source
human PSMA-Fc [17] = target: T4, human PSMA-Fc; assay: Octet, human PSMA-Fc, 300-3.6 nM PSMA-uTCE

T4 sequence (Q04609 44-750 limits assumed): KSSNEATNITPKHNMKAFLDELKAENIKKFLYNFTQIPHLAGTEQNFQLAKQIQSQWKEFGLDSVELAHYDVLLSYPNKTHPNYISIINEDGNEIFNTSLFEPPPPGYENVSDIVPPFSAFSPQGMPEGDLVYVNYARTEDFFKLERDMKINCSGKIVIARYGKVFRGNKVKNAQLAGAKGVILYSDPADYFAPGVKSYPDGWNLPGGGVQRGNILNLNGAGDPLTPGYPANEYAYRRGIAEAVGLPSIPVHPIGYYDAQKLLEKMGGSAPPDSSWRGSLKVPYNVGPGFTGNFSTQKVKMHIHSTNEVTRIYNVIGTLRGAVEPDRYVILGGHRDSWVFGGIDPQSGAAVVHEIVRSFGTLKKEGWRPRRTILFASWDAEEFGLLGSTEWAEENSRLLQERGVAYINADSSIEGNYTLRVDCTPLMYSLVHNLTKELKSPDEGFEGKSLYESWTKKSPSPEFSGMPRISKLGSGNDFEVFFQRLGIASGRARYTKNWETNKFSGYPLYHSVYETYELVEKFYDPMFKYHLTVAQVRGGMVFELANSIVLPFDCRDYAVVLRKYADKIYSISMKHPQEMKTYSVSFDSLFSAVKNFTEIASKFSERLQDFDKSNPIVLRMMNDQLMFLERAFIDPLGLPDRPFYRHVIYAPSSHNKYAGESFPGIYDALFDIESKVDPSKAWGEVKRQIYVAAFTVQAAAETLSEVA
T1 sequence (Q04609 44-750 limits assumed): as above
T3 sequence (P07766 23-126 limits assumed): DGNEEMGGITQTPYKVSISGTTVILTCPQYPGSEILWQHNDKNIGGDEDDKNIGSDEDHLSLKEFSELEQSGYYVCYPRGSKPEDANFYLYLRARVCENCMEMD
T6 sequence (P07766 23-126 limits assumed): as above
T8 sequence (Q04609 whole entry): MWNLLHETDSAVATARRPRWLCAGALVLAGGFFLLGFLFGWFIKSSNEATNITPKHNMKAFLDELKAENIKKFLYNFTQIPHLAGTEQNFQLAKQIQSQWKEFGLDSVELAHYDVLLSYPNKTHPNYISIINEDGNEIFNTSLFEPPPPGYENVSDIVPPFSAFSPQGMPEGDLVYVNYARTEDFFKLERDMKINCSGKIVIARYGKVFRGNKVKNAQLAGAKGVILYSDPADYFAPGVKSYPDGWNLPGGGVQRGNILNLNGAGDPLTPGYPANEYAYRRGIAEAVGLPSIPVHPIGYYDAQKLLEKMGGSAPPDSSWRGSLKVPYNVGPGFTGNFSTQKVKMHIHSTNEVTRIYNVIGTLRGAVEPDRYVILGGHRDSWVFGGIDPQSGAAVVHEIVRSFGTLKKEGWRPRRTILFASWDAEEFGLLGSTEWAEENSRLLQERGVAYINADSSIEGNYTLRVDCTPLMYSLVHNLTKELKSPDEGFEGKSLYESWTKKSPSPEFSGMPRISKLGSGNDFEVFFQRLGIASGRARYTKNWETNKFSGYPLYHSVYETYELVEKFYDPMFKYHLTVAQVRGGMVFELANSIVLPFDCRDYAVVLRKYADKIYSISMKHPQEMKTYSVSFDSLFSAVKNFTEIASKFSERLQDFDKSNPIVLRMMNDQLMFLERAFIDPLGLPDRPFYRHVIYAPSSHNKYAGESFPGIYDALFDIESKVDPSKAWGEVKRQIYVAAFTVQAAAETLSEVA
T9 sequence (Q04609 whole entry): as above

B1: AMX-500(1x-C) (bispecific antibody)
chain: ASSATPESGPGTSTEPSEGSAPGTSESATPESGPGSGPGTSESATPGTSESATPESGPGSEPATSGSETPGTSESATPESGPGTSTEPSEGSAPGSPAGSPTSTEEGTSESATPESGPGSEPATSGSETPGTSESATPESGPGSPAGSPTSTEEGSPAGSPTSTEEGTSTEPSEGSAPGTSESATPESGPGTSESATPESGPGTSESATPESGPGSEPATSGSETPGSEPATSGSETPGSPAGSPTSTEEGTSTEPSEGSAPGTSTEPSEGSAPGSEPATSGSETPGTSESATPEAGRSASHTPAGLTGPGTSESATPESQVQLVESGGGVVQPGRSLRLSCAASGRTFGIYVWGWFRQAPGKEREFVGAMSWSGSNRKVSDSVKGRFTISRDNSKNTLYLQMNSLRAEDTAVYYCAASNKEYGRTWYDFNESDYWGQGTQVTVSSGGGGSGGGSELVVTQEPSLTVSPGGTVTLTCRSSNGAVTSSNYANWVQQKPGQAPRGLIGGTNKRAPGTPARFSGSLLGGKAALTLSGVQPEDEAVYYCALWYPNLWVFGGGTKLTVLSESATPESGPGTSPGATPESGPGTSESATPEVQLVESGGGIVQPGGSLRLSCAASGFTFSTYAMNWVRQAPGKGLEWVGRIRTKRNNYATYYADSVKGRFTISRDDSKNTVYLQMNSLKTEDTAVYYCVRHENFGNSYVSWFAHWGQGTLVTVSSGTATPESGPGEAGRSASHTPAGLTGPATPESGPGTSESATPESGPGSPAGSPTSTEEGTSESATPESGPGSEPATSGSETPGTSESATPESGPGTSTEPSEGSAPGTSTEPSEGSAPGTSTEPSEGSAPGTSTEPSEGSAPGTSTEPSEGSAPGTSTEPSEGSAPGSPAGSPTSTEEGTSTEPSEGSAPGTSESATPESGPGSEPATSGSETPGTSESATPESGPGSEPATSGSETPGTSESATPESGPGTSTEPSEGSAPGTSESATPESGPGSPAGSPTSTEEGSPAGSPTSTEEGSPAGSPTSTEEGTSESATPESGPGTSTEPSEGSAPGTSESATPESGPGSEPATSGSETPGTSESATPESGPGSEPATSGSETPGTSESATPESGPGTSTEPSEGSAPGSPAGSPTSTEEGTSESATPESGPGSEPATSGSETPGTSESATPESGPGSPAGSPTSTEEGSPAGSPTSTEEGTSTEPSEGSAPGTSESATPESGPGTSESATPESGPGTSPSATPESGPGSEPATSGSETPGSEPATSGSETPGSPAGSPTSTEEGTSTEPSEGSAPGTSTEPSEGSAPGSEPATSGSETPGTSESAGEPEA
Kd (human PSMA [1]): 353 nM
Kd (Cyno CD3): 26.7 nM
Kd (Human CD3): 34.4 nM

B2: uTCE of AC3329 (bispecific antibody)
chain: LTGPRAPPEPEFARATSGSETPGTQVQLVESGGGVVQPGRSLRLSCAASGRTFGIYVMGWVRQAPGKEREFVAAISWSGSNRKVSDSVKGRFTISRDNSKNTLYLQMNSLRAEDTAVYYCAASNRLYGRTWYDFNESDYWGQGTQVTVSSGGGGSGGGSELVVTQEPSLTVSPGGTVTLTCRSSNGAVTSSNYANWVQQKPGQAPRGLIGGTNKRAPGTPARFSGSLLGGKAALTLSGVQPEDEAVYYCALWYPNLWVFGGGTKLTVLGATPPETGAETESPGETTGGSAESEPPGEGEVQLLESGGGIVQPGGSLKLSCAASGFTFNTYAMNWVRQAPGKGLEWVARIRSKYNNYATYYADSVKDRFTISRDDSKNTVYLQMNNLKTEDTAVYYCVRHENFGNSYVSWFAHWGQGTLVTVSSGTAEAASASGEAGRSANHTPAG
notes: unmasked TCE of this paTCE; also called PSMA.119; L59K
Kd (human PSMA-Fc [2]): 3.2 nM
koff (human PSMA-Fc [2]): 0.000248 s⁻¹
kon (human PSMA-Fc [2]): 80000 M⁻¹ s⁻¹
Kd (human PSMA [3]): 4.1 nM
Kd (human PSMA-Fc [4]): 3.2 nM

B3: AMX-500(uTCE) (bispecific antibody)
chain: GTSESATPESQVQLVESGGGVVQPGRSLRLSCAASGRTFGIYVWGWFRQAPGKEREFVGAMSWSGSNRKVSDSVKGRFTISRDNSKNTLYLQMNSLRAEDTAVYYCAASNKEYGRTWYDFNESDYWGQGTQVTVSSGGGGSGGGSELVVTQEPSLTVSPGGTVTLTCRSSNGAVTSSNYANWVQQKPGQAPRGLIGGTNKRAPGTPARFSGSLLGGKAALTLSGVQPEDEAVYYCALWYPNLWVFGGGTKLTVLSESATPESGPGTSPGATPESGPGTSESATPEVQLVESGGGIVQPGGSLRLSCAASGFTFSTYAMNWVRQAPGKGLEWVGRIRTKRNNYATYYADSVKGRFTISRDDSKNTVYLQMNSLKTEDTAVYYCVRHENFGNSYVSWFAHWGQGTLVTVSSGTATPESGPG
notes: also called uTCE from AC3896; fully unmasked AMX-500; not shown: remnant of cleaved N-terminal release segment RSR-3213; remnant of cleaved C-terminal release segment RSR-3213
Kd (cynomolgus monkey PSMA [5]): 201 nM
Kd (human PSMA [6]): 12.1 nM
Kd (human CD3 epsilon [7]): 12.8 nM
Kd [8]: 13.7 nM
Kd (cynomolgus monkey PSMA [9]): 410 nM
koff (cynomolgus monkey PSMA [9]): 0.043 s⁻¹
kon (cynomolgus monkey PSMA [9]): 100000 M⁻¹ s⁻¹
Kd (human PSMA [1]): 44 nM
koff (human PSMA [1]): 0.012 s⁻¹
kon (human PSMA [1]): 270000 M⁻¹ s⁻¹
in vitro cytotoxicity IC50, LNCaP PSMA-high cells with PBMC, donor 1 [10]: 0.024 nM
in vitro cytotoxicity IC50, LNCaP PSMA-high cells with PBMC, donor 2 [10]: 0.015 nM
in vitro cytotoxicity IC50, LNCaP PSMA-high cells with PBMC, donor 3 [10]: 0.016 nM
in vitro cytotoxicity IC50, LNCaP PSMA-high cells with PBMC, donor 5 [10]: 0.032 nM
Kd (human CD3 epsilon [11]): 33.2 nM
Kd [12]: 38.8 nM
Kd (Cyno CD3): 26 nM
koff (Cyno CD3): 0.1 s⁻¹
kon (Cyno CD3): 5e+06 M⁻¹ s⁻¹
Kd (Human CD3): 28 nM
koff (Human CD3): 0.1 s⁻¹
kon (Human CD3): 4e+06 M⁻¹ s⁻¹
EC50 [13]: 17.4 nM
Kd (cynomolgus monkey PSMA [14]): 230 nM
Kd (human PSMA [15]): 11.7 nM
in vitro cytotoxicity IC50, 22Rv1 cells with PBMC, donor 1 [16]: 0.691 nM
in vitro cytotoxicity IC50, 22Rv1 cells with PBMC, donor 2 [16]: 1.34 nM
in vitro cytotoxicity IC50, 22Rv1 cells with PBMC, donor 3 [16]: 1.3 nM

B4: uTCE from AC3928 (bispecific antibody)
chain: LTGPGTSESATPESQVQLVESGGGVVQPGRSLRLSCAASGRTFGIYVWGWFRQAPGKEREFVGAMSWSGSNRKVSDSVKGRFTISRDNSKNTLYLQMNSLRAEDTAVYYCAASNKEYGRTWYDFNESDYWGQGTQVTVSSGGGGSGGGSELVVTQEPSLTVSPGGTVTLTCRSSNGAVTSSNYANWVQQKPGQAPRGLIGGTNKRAPGTPARFSGSLLGGKAALTLSGVQPEDEAVYYCALWYPNLWVFGGGTKLTVLSESATPESGPGTSPGATPESGPGTSESATPEVQLLESGGGIVQPGGSLKLSCAASGFTFNTYAMNWVRQAPGKGLEWVARIRSKYNNYATYYADSVKDRFTISRDDSKNTVYLQMNNLKTEDTAVYYCVRHENFGNSYVSWFAHWGQGTLVTVSSGTATPESGPGEAGRSASHTPAG
notes: unmasked TCE released from this paTCE; also called PSMA.350-CD3.23 uTCE; AMX500-P6
Kd (cynomolgus monkey PSMA [5]): 198 nM
Kd (human PSMA [6]): 13.2 nM
Kd (human CD3 epsilon [7]): 27.3 nM
Kd [8]: 26.6 nM
Kd (human CD3 epsilon [11]): 43 nM
Kd [12]: 44.9 nM
Kd (cynomolgus monkey PSMA [14]): 354 nM
Kd (human PSMA [15]): 19 nM

B5: uTCE from AC3934 (bispecific antibody)
chain: LTGPGTSESATPESQVQLVESGGGVVQPGRSLRLSCAASGRTFGIYVWGWVRQAPGKEREFVGAISWSGSNRKVSDSVKGRFTISRDNSKNTLYLQMNSLRAEDTAVYYCAASNKLYGRTWYDFNESDYWGQGTQVTVSSGGGGSGGGSELVVTQEPSLTVSPGGTVTLTCRSSNGAVTSSNYANWVQQKPGQAPRGLIGGTNKRAPGTPARFSGSLLGGKAALTLSGVQPEDEAVYYCALWYPNLWVFGGGTKLTVLSESATPESGPGTSPGATPESGPGTSESATPEVQLVESGGGIVQPGGSLRLSCAASGFTFSTYAMNWVRQAPGKGLEWVGRIRTKRNNYATYYADSVKGRFTISRDDSKNTVYLQMNSLKTEDTAVYYCVRHENFGNSYVSWFAHWGQGTLVTVSSGTATPESGPGEAGRSASHTPAG
notes: unmasked TCE released from this paTCE; also called PSMA.262-CD3.228 uTCE
Kd (cynomolgus monkey PSMA [5]): 13.1 nM
Kd (human PSMA [6]): 1.6 nM
Kd (human CD3 epsilon [7]): 9.83 nM
Kd [8]: 10.4 nM
Kd (human CD3 epsilon [11]): 26.6 nM
Kd [12]: 33.7 nM
Kd (cynomolgus monkey PSMA [14]): 13 nM
Kd (human PSMA [15]): 0.5 nM

B6: uTCE of AC3265 (bispecific antibody, V domains shown)
VH: QVQLVESGGGVVQPGRSLRLSCAASGRTFGIYVMGWYRQAPGKEREFVAAISWSGSNRLVSDSVKGRFTISRDNSKNTLYLQMNSLRAEDTAVYYCAASNRLYGRTWYDFNESDYWGQGTQVTVSS
notes: VHH in uTCE with CD3.23 scFv (VL-VH), 9-residue linker; also called PSMA.55; V37Y
koff (human PSMA-Fc [2]): 0.00028 s⁻¹
kon (human PSMA-Fc [2]): 104000 M⁻¹ s⁻¹
Kd (human PSMA-Fc [4]): 2.7 nM
Kd (human PSMA-Fc [17]): 2.7 nM
